B1: mRNA export factor (Human herpesvirus 1 (strain 17) (HHV-1)), P10238 (parent)
chain: MATDIDMLIDLGLDLSDSDLDEDPPEPAESRRDDLESDSSGECSSSDEDMEDPHGEDGPEPILDAARPAVRPSRPEDPGVPSTQTPRPTERQGPNDPQPAPHSVWSRLGARRPSCSPEQHGGKVARLQPPPTKAQPARGGRRGRRRGRGRGGPGAADGLSDPRRRAPRTNRNPGGPRPGAGWTDGPGAPHGEAWRGSEQPDPPGGQRTRGVRQAPPPLMTLAIAPPPADPRAPAPERKAPAADTIDATTRLVLRSISERAAVDRISESFGRSAQVMHDPFGGQPFPAANSPWAPVLAGQGGPFDAETRRVSWETLVAHGPSLYRTFAGNPRAASTAKAMRDCVLRQENFIEALASADETLAWCKMCIHHNLPLRPQDPIIGTTAAVLDNLATRLRPFLQCYLKARGLCGLDELCSRRRLADIKDIASFVFVILARLANRVERGVAEIDYATLGVGVGEKMHFYLPGACMAGLIEILDTHRQECSSRVCELTASHIVAPPYVHGKYFYCNSLF
partner: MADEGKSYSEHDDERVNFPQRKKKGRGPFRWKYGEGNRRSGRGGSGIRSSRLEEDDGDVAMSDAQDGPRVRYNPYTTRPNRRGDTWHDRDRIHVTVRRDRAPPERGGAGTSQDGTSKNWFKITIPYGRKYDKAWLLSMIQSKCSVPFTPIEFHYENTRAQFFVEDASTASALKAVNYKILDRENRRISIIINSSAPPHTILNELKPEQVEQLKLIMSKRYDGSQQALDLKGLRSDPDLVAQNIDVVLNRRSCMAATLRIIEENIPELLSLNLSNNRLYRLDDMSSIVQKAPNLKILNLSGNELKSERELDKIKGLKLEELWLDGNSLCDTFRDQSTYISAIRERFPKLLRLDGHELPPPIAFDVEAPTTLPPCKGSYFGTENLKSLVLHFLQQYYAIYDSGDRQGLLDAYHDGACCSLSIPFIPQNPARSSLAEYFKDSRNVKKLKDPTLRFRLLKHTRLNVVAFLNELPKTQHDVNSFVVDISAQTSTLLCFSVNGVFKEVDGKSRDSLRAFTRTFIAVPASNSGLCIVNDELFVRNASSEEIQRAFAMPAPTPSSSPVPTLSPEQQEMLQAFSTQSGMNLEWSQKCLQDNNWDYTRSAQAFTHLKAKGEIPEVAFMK

In the assay the parent is B1. The note with it: with nxf1_human NXF1, Q9UBU9.
As for P465L;G466E, the “effect of a mutation on the interaction” value is on record as “disrupting interaction”.

Source of the values: IntAct's records for PubMed 22334672.
